Laboratory results published in patent US20190359653A1, “SELECTIVE PEPTIDE INHIBITORS OF FRIZZLED” (Genentech, Inc., priority 2016, published 2019).

Biological target: FZD7 class proteins
Assay: ELISA of biotinylated Wnt binding to FZD CRD-Fc with or without peptide

Biotinylated Wnt3a (from UniProt P27467 19-352) (ligand)
fold enhancement of binding by Fz7-21 or dFz7-21: 1.5 to 2 fold
